Measured values as given in the supplement of paper PMC10567573.

B1: CSNK1G1 (parent)
chain: GSLPWQGLKADTLKERYQKIGDTK
B2: TPPP (parent)
chain: LCKDCQVIDGRNVTVTDVDIVFSK

Variants of: B1
Assay: protein stability index of a GFP-peptide fusion (GPS, HEK-293T) (PSI 1-6); higher = more stable
Settings: c terminus: a fixed tail appended
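Further: lentivirally expressed fusions sorted by FACS into six bins by GFP to DsRed ratio, PSI derived from sequencing read proportions per bin multiplied by bin number.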

Protein stability index, by site and new letter:
D22: V 3.65; K 3.56; E 3.91; Q 3.82; H 3.75; M 3; I 3.41; F 3; N 3.2; S 4.05; W 2.64; L 3.32; C 3.81; G 3.74; Y 2.98; P 3.7; T 3.52; A 3.06; R 3.43
R16: S 4.71; N 4.68; V 4.25; P 4.37; Q 4.44; L 4.11; W 2.99; K 4.23; T 4.07; M 4.11; Y 4.01
I20: G 5; Q 4.36; Y 4.29; H 4.47; P 4.75; S 4.65; M 4.53; D 4.86; N 4.62; T 4.46; V 4.3; F 4.26; K 4.33; A 4.67; C 4.35; R 4.2; E 5.24; L 3.86; W 3.62
T23: Q 3.96; E 4.68; N 3.92; V 4.01; P 3.91; A 4.46; H 4.08; L 3.82; C 3.4; R 3.84; G 4.34; Y 3.36; W 2.78; D 4.55; F 3.38; K 4.74; S 4.53; M 3.97; I 3.81
K24: M 3.19; P 4.2; Q 4.07; H 3.6; A 4.01; R 3.72; Y 2.63; L 3.3; C 3.4; F 3; D 3.25; N 3.91; T 4.08; S 3.79; W 2.95; E 4.88; I 3.53; V 3.39; G 3.79
Y17: F 4.19; R 4.13; V 4.04; C 4.27; G 5.36; I 4.21; N 4.98; W 3.82; M 4.23; S 4.45; P 4.88; Q 4.81; H 5.05; L 4.19; A 4.98; K 4.72; T 4.83; D 4.99; E 5.71
K19: N 4.35; R 3.75; Y 3.86; T 4.3; Q 4.8; L 3.74; F 3.05; D 4.67; I 3.54; A 3.94; V 3.83; E 4.45; C 3.56; P 3.95; G 4.17; W 2.83; S 3.95; H 4.24; M 3.68
Q18: P 4.66; A 4.46; L 3.91; F 2.91; D 4.47; N 4.11; I 3.57; K 3.62; M 3.64; W 3.34; V 3.64; E 4.54; R 3.96; T 4.26; S 4.35; C 3.76; H 4.09; Y 3.74; G 4.09
G21: W 3.01; N 3.86; Q 4.44; K 4.71; I 3.41; P 4.62; H 4.15; V 3.64; C 3.29; Y 3.74; M 3.87; S 4.3; A 3.59; F 3.42; E 4.37; R 4.16; D 4.57; T 3.83; L 4

Variants of: B2
Assay: as above
Settings: c terminus: a fixed tail appended

Protein stability index, by site and new letter:
C2: W 2.56; D 4.08; R 2.79; G 3.37; H 3.42; F 2.48; P 4.04; I 2.93; Y 2.75; T 3.61; V 3.04; M 3.24; N 3.59; E 4.36; A 3.56; L 3.09; K 3.07; S 3.54; Q 4.18
I8: L 2.24; W 1.83; E 3.21; T 3.12; H 2.43; R 3.2; K 2.6; V 3.47; D 3.97; N 2.35; C 2.3; F 2.42; Q 3.14; A 2.84; G 2.54; Y 2; P 3.19; S 2.79; M 2.81
Q6: F 1.74; N 2.49; K 2.16; E 2.9; W 2.17; L 1.97; V 2.14; S 2.61; T 2.7; G 2.78; C 2.09; H 2.73; P 3.16; R 2.8; D 2.69; M 2.66; A 2.05; Y 2.4
C5: P 4.03; V 3.36; S 4.01; G 2.98; Q 3.75; K 3.84; E 4.32; H 3.82; R 3.38; I 2.6; A 3.62; Y 2.94; F 2.54; L 3.16; D 4.39; M 2.77; W 2.28; N 3.66; T 3.35
V7: G 2.59; H 2.44; T 2.87; Q 2.46; I 2.33; P 2.96; W 3.61; L 2.2; C 2.4; S 3.05; A 2.61; M 2.31; E 2.94; Y 1.53; F 2.33; D 3.64; R 2.8; N 2.61; K 2.46
K3: E 3.21; Y 1.91; I 1.05; Q 2.18; R 2.15; F 1.65; H 2.52; C 1.89; L 1.92; A 2.51; N 2.95; W 1.49; D 3.3; G 3.34; M 1.78; P 3.26; S 2.17; T 2.83
G10: E 2.55; A 2.31; D 3.35; C 2.14
D4: T 1.77; Q 1.97; P 2.25; M 2.1; F 1.93; L 1.83; G 2.42; V 1.82; H 1.57; E 2.71; C 2.35; K 2.31; Y 1.81; N 1.69; R 2.73; I 2.02; A 1.76; S 1.71
D9: P 2.65; C 2.05; E 2.66; G 2.1; Q 2.76; L 2.48; F 1.9; M 2.19; Y 2.27; A 1.96; T 2.99; S 2.45; H 2.07; V 1.21; W 1.84; N 2; R 2.53; I 1.66; K 2.48
L1: C 1.85; I 2.01; Y 2.08; R 1.57; N 3.32; H 2.7; E 3.41; P 2.85; S 2.91; A 2.54; D 4.05; V 2.71; W 1.89; T 2.73; Q 3.08; K 3.47; M 2.26; F 2.25
